For one test, the target named is T1, mD1D2-CaM (murine, UniProt P0C191 22-206; P0DP23 2-149, limits assumed).
T1 construct: Residues counted from Q1 (mature protein); also called murine D1D2; mouse D1D2-CaM
Description: capture ELISA, purified scFv.

The target of test [1] is T2, hD1D2-CaM (human, UniProt Q9HCN6 21-205; P0DP23 2-149, limits assumed).
T2 construct: Residues are counted on mature GPVI, not on the precursor; also called rGPVI; recombinant GPVI
Description: resonant mirror biosensor, from response ratio against ratio of molecular masses.
Description: Binding studies and affinity measurements were conducted using a resonant mirror biosensor (Iasys, Thermolabsystems, Cambridge, UK). Using this system, one protein (the ligand) was immobilised to the mirrored surface of the cell of a cuvette. The cell contains a stirred volume of buffer to which aliquots of a second protein (the ligate) are then added. If the ligate binds or dissociates from the immobilised ligand, these changes are detected optically and give a reading in arc.sec−1 in real time. […] Here, BSA-N9A was covalently immobilised to a carboxymethyldextran surface using the manufacturer's instructions. The machine was then primed with TBS-TCa. A stirring speed of 100, cuvette temperature of 25° C. and reaction volume per cell of 50 μl were used in all experiments unless otherwise indicated. […] Several washes with TBS-TCa were made to remove unbound material from the cell. Then typically the wells were filled with 45 μl buffer to which was added further volumes of purified scFv (e.g. 5 μl) in HBS. The binding of scFv was measured in arc.sec⁻¹. The binding curves were analysed either by recording response at equilibrium versus time (for epitope mapping studies) or by calculating the initial rates of binding at different scFv concentrations using FastFit software (for affinity measurements).
ScFvs were added sequentially to saturation, without washing. […]

Test [2] concerns the target T2, hD1D2-CaM. Description: resonant mirror biosensor, Cell 1.
Description: Here, BSA-N9A was covalently immobilised to a carboxymethyldextran surface using the manufacturer's instructions. The machine was then primed with TBS-TCa. A stirring speed of 100, cuvette temperature of 25° C. and reaction volume per cell of 50 μl were used in all experiments unless otherwise indicated. […] Several washes with TBS-TCa were made to remove unbound material from the cell. Then typically the wells were filled with 45 μl buffer to which was added further volumes of purified scFv (e.g. 5 μl) in HBS. The binding of scFv was measured in arc.sec⁻¹. The binding curves were analysed either by recording response at equilibrium versus time (for epitope mapping studies) or by calculating the initial rates of binding at different scFv concentrations using FastFit software (for affinity measurements).
Each scFv was then allowed to bind to saturation.
In a further test the target is T3, hD1-CaM (human, UniProt Q9HCN6 21-109; P0DP23 2-149, limits assumed).
T3 construct: Residues counted on mature GPVI; also called isolated hD1
Description: screening ELISA. (In general: ELISA stands for enzyme-linked immunosorbent assay.)

B1: scFv 10B12 (scFv, V domains shown)
VH: EVQLVQSGGGVVQPGGSLRLSCAASGFTFSSYGMHWVRQAPGKGLEWVAFIRYDGSNKYYADSVKGRFTISRDNSKNTLYLQMNSLRAEDTAVYYCTDGWAEMATTDDAFDIWGRGTMVTV
VL: DIQMTQSPSTLSASIGDRVTITCRASEGIYHWLAWYQQKPGKAPKLLIYKASSLASGAPSRFSGSGSGTDFTLTISSLQPDDFATYYCQQYSNYPLTFGGGTKLEIK
notes: Human scFv from the CaT (Vaughan) library; also called 10B12 scFv
For the molecule B1, the binding result with mD1D2-CaM is listed as “no binding (tested: 10 µg/ml)”. Besides, the “binding ratio (scFv to hD1D2)” value with hD1D2-CaM [1] is 1. In addition, the “ratio of responses 10B12: D1D2-CaM” value with hD1D2-CaM [2] turned out to be 0.61.

B2: scFv 1C3 (scFv, V domains shown)
VH: QVQLQQSGAEVKKPGESLKISCQASGYSFSSYWIAWVRQMPGKGLELMGIIYPGDSDARYSPSFQGQVTFSADKSINTAYLQWSSLKASDTAMYYCARQGKTGSYYFGAFDVWGQGTMVTVSS
VL: QSVLTQPPSMSAAPGQKVTISCTGTSSDVGGYNYVSWYQQHPGKAPKLMLFEVSHRPSGVSNRFSGSKSDNTASLTISGLQAEDEADYYCSSYTGSSTWVFGGGTKVTVL
notes: Human scFv from the Marks library; also called 1C3 scFv
B2: in the test with hD1D2-CaM [1], the “binding ratio (scFv to hD1D2)” value came to 1. Also, the “ratio of responses 1C3: D1D2-CaM” value in the test with hD1D2-CaM [2] was found to be 0.63. For the same molecule, the binding result with hD1-CaM is given as “no binding”.

These data come from patent US20060088531A1 (CAMBRIDGE ENTERPRISE, published 2006).
